The results in this text go back to publication PMC3505971 (Nucleic Acids Research, 2012).

In data set [1] the target is Ec Hfq (Escherichia coli, UniProt P0A6X3 1-102). Put plainly: fluorescence polarization.
Data set [2] concerns the target T1, Sa Hfq (Staphylococcus aureus, UniProt A0A0H3JV59 1-77). Put plainly: fluorescence polarization. For orientation: In fluorescence polarisation assays a small probe gives low polarisation when free and higher when bound to something large.
The target of data set [3] is Sa Hfq(K33A) (Staphylococcus aureus, UniProt A0A0H3JV59 1-77, K33A). Put plainly: fluorescence polarization.
Data set [4] deals with the molecule itself. The data set is described as follows: crystal structure.
Data set [5] addresses T1, Sa Hfq. Put plainly: fluorescence polarization. This is another data set of the same source.

In general, Kd refers to the constant that tells how readily two partners part at equilibrium. A higher Kd goes with a looser complex. For AAAAAAAAAAAAAAAAAAAAAAAAAAA (ssRNA) [A27], the Kd in data set [1] was 0.85 ± 0.08 nM; in data set [2], 109 ± 13 nM.

The molecule ACACACA (ssRNA) [(AC)3A] had an equilibrium dissociation constant (Kd) in data set [2] of 5.8 ± 7.3 nM.

As to AGAGAGA (ssRNA) [(AG)3A], the Kd in data set [3] amounted to 11.9 ± 3 nM; in data set [2], 3.5 ± 0.3 nM.

On to GGAGGAGGAGGAGGAGGAGGAGGAGGA (ssRNA) [(GGA)9], for which the Kd in data set [2] was determined as 350 nM.

B1: Staphylococcus aureus Hfq (natural protein)
chain: MIANENIQDKALENFKANQTEVTVFFLNGFQMKGVIEEYDKYVVSLNSQGKQHLIYKHAISTYTVETEGQASTESEE
By stoichiometry N is commonly meant the number of molecules, sites or subunits per partner or assembly. For B1, the “stoichiometry N” value in data set [4] was found to be 6.

In the case of AAAAAAA (ssRNA) [(AA)3A = A7], the Kd was 406 ± 112 nM in data set [3] and 19.5 ± 6.4 nM in data set [2].

AAAAAAAAAAAAAAAA (ssRNA) [A16]: the figures for the Kd in data set [1] and in data set [2] were 0.4 ± 0.5 nM and 4.2 ± 0.5 nM, respectively.

As for GGAGGA (ssRNA) [(GGA)2], the Kd in data set [2] is 450 nM.

For the molecule AUAUAUA (ssRNA) [(AU)3A], the figures for the dissociation constant Kd in data set [3] and in data set [2] were 309 ± 40.2 nM and 2.7 ± 2.3 nM, respectively.

Take AUUUUUG (ssRNA) [AU5G]: the binding result in data set [5] was “binds”.

Turning to UUUUUU (ssRNA) [U6], the figures for the dissociation constant Kd in data set [3] and in data set [2] were 72.7 ± 21.9 nM and 69.8 ± 7 nM, respectively.

Turning to AAAAAAG (ssRNA) [A6G], the binding result in data set [5] was “binds”.
